Measured values from US20240239890A1 (Chugai, published 2024).

T1: Human RNF43 extracellular domain (amino acids 1-190) with a Flag tag on its C terminus (human, UniProt Q68DV7 24-190)
T1 construct: also called recombinant human RNF43; human RNF43 ECD
T1 sequence: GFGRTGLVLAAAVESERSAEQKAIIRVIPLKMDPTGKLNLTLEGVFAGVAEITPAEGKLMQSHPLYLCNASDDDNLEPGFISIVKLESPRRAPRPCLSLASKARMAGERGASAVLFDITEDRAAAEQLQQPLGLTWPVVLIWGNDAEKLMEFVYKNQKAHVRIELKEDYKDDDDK


Each binder was assayed against T1, Human RNF43 extracellular domain (amino …) (assay: SPR, Biacore T200, antibody captured by anti-human Fc, RNF43 as analyte, pH 7.4, 25 C).
Protocol: The affinity of the anti-RNF43 monospecific antibodies towards human RNF43 at pH 7.4 was determined at 25 degrees C. using the Biacore T200 instrument (GE Healthcare). Anti-human Fc (GE Healthcare) was immobilized onto all flow cells of a CM4 sensor chip using an amine coupling kit (GE Healthcare). All antibodies and analytes were prepared in ACES at pH 7.4 containing 20 mM ACES, 150 mM NaCl, 0.05% Tween 20, 0.005% NaN₃. Each antibody was captured onto the sensor surface by anti-human Fc. Antibody capture levels were aimed at 312 resonance unit (RU). Recombinant human RNF43 was injected at 200 nM, 50 nM, and 12.5 nM prepared by a four-fold serial dilution, followed by dissociation. The sensor surface was regenerated each cycle with 3M MgCl2. Binding affinity was determined by processing and fitting the data to a 1:1 binding model using the Biacore T200 Evaluation software, version 2.0 (GE Healthcare).

Row | Kd [nM] | koff [s⁻¹] | kon [M⁻¹ s⁻¹] | Binder
1 | 63.5 | 0.0458 | 721000 | RNN0193jj (antibody, human IgG1, kappa, N297A, Rabbit variable regions recombined with BS03aHis heavy-chain constant region and hk0MC light-chain constant region; also called anti-RNF43 monospecific antibody) heavy: QSLEESGGDLVKPGASLTLTCTASGFSFSNNYWICWVRQAPGKGPEWIACIYTGDGDTDYASWAKGRFTISKTSSTTVTLQMTSLTAADTATYFCAREAGTVDGVWNYVFNLWGPGTLVTVSSASTKGPSVFPLAPSSRSTSESTAALGCLVKDYFPEPVTVSWNSGALTSGVHTFPAVLQSSGLYSLSSVVTVPSSSLGTKTYTCNVDHKPSNTKVDKRVEPKSCDKTHTCPPCPAPELRRGPKVFLFPPKPKDTLMISRTPEVTCVVVDVSQEDPEVQFNWYVDGVEVHNAKTKPREEQFASTYRVVSVLTVLHQDWLNGKEYKCKVSNKGLPSSIEKTISKAKGQPREPQVYTLPPSREEMTKNQVSLTCLVKGFYPSDIAVEWESNGQPENNYKTTPPYLDSDGSFFLYSKLTVDKSRWQQGNVFSCSVMHEALHNHYTQESLSLSPHHHHHHHH light: AQVLTQTPSPVSAAVGGTVTISCQSSQSVYNDNLAWFQQKPGQPPKLLIYDASTLASGVPSRFKGSGSGTQFTLTISKLQCDDAATYYCQGVYIGHIFTFGGGTKVEIKRTVAAPSVFIFPPSDEQLKSGTASVVCLLNNFYPREAKVQWKVDNALQSGNSQESVTEQDSKDCTYSLSSTLTLSKADYEKHKVYACEVTHQGLSSPVTKSFNRGEC
2 | 48.6 | 0.00944 | 194000 | RNN0246jj (antibody, human IgG1, kappa, N297A, Rabbit variable regions recombined with BS03aHis heavy-chain constant region and hk0MC light-chain constant region; also called anti-RNF43 monospecific antibody) heavy: QSVEESGGRLVTPDETLTLTCTVSGFSLNNYHMIWVRQAPGEGLEYIGFINTGGSAYYANWAKGRFTISKTSTTVDLKITSPTTEDTATYFCASVSWRTDYSFELWGPGTLVTVSSASTKGPSVFPLAPSSRSTSESTAALGCLVKDYFPEPVTVSWNSGALTSGVHTFPAVLQSSGLYSLSSVVTVPSSSLGTKTYTCNVDHKPSNTKVDKRVEPKSCDKTHTCPPCPAPELRRGPKVFLFPPKPKDTLMISRTPEVTCVVVDVSQEDPEVQFNWYVDGVEVHNAKTKPREEQFASTYRVVSVLTVLHQDWLNGKEYKCKVSNKGLPSSIEKTISKAKGQPREPQVYTLPPSREEMTKNQVSLTCLVKGFYPSDIAVEWESNGQPENNYKTTPPYLDSDGSFFLYSKLTVDKSRWQQGNVFSCSVMHEALHNHYTQESLSLSPHHHHHHHH light: AQVLTQTPSPVSAAVGGTVTISCQASQSVYANNRLAWFQQKPGQPPKLLIYSASTLASGVPSRFKGSGSGTQFTLTISGVQCDDAATYYCAGAYTGNIYTFGGGTKVEIKRTVAAPSVFIFPPSDEQLKSGTASVVCLLNNFYPREAKVQWKVDNALQSGNSQESVTEQDSKDCTYSLSSTLTLSKADYEKHKVYACEVTHQGLSSPVTKSFNRGEC
3 | 65.6 | 0.131 | 1.99e+06 | RNN0275kk (antibody, human IgG1, kappa, N297A, V domains shown, Rabbit variable regions recombined with BS03aHis heavy-chain constant region and hk0MC light-chain constant region; also called anti-RNF43 monospecific antibody) VH: QSVEESGGRLVTPGTPLTLTCTVSGWTINSYHMCWVRQAPGEGLEWIATITTGGVTFYANWARGRFTISKTSTTVDLKMTSLTAADTATYFCVRGPDYTYFDLWGPGTLVTVSS VL: NVVLTQTPSSVSAAVGGTVTIKCQASQSISDTLAWYQQKPGQPPKLLIYYASDLASGVPSRFSGSGSGTEFTLTINDLECADAATYYCQSYVYSNGIDNTFGGGTKVEIKR
4 | 0.928 | 0.00558 | 6.02e+06 | RNN0192nn (antibody, human IgG1, kappa, N297A, Rabbit variable regions recombined with BS03aHis heavy-chain constant region and hk0MC light-chain constant region; also called anti-RNF43 monospecific antibody) heavy: QEQLVESGGGLVQPEGSLTLTCTASGFSFSSRYYMCWVRQAPGKGLEWIGCIYTGSGSTYYASWAKGRVTISKTSSTTVTLQMTSLTAADTATYFCAREAGSFNLWGPGTLVTVSSASTKGPSVFPLAPSSRSTSESTAALGCLVKDYFPEPVTVSWNSGALTSGVHTFPAVLQSSGLYSLSSVVTVPSSSLGTKTYTCNVDHKPSNTKVDKRVEPKSCDKTHTCPPCPAPELRRGPKVFLFPPKPKDTLMISRTPEVTCVVVDVSQEDPEVQFNWYVDGVEVHNAKTKPREEQFASTYRVVSVLTVLHQDWLNGKEYKCKVSNKGLPSSIEKTISKAKGQPREPQVYTLPPSREEMTKNQVSLTCLVKGFYPSDIAVEWESNGQPENNYKTTPPYLDSDGSFFLYSKLTVDKSRWQQGNVFSCSVMHEALHNHYTQESLSLSPHHHHHHHH light: DVVMTQTPASVSEPVGGTVTIKCQASQSIYSGLAWYQQKPGQPPKLLIYSASKLASGVPSRFKGSGSGTEYTLTISDLECADAATYYCQNYYYGISNGWTFGGGTKVEIKRTVAAPSVFIFPPSDEQLKSGTASVVCLLNNFYPREAKVQWKVDNALQSGNSQESVTEQDSKDCTYSLSSTLTLSKADYEKHKVYACEVTHQGLSSPVTKSFNRGEC
5 | 1.11 | 0.00291 | 2.63e+06 | RNN0198oo (antibody, human IgG1, kappa, N297A, V domains shown, Rabbit variable regions recombined with BS03aHis heavy-chain constant region and hk0MC light-chain constant region; also called anti-RNF43 monospecific antibody) VH: QEQLVESGGGLVQPEGSLTLTCKASGLDFSSSYWMCWVRQAPGKGLEWIGCIYTGSSGSTYYASWAKGRFTISKTSSTTVTLQMTSLTAADTATYFCARTGSRYWNYFELWGPGTLVTVSS VL: DVVMTQTPPSVSAAVGGTVTIKCQASQSIYRGLAWYQQKPGQPPNLLIYSASTLASGVPSRFSGSGSGTEYTLTISDLECADAATYYCQSYYYSSSNGWPFGGGTKVEIKR
6 | 71.1 | 0.294 | 4.14e+06 | RNN0191kk (antibody, human IgG1, kappa, N297A, V domains shown, Rabbit variable regions recombined with BS03aHis heavy-chain constant region and hk0MC light-chain constant region; also called anti-RNF43 monospecific antibody) VH: QSLEESGGRLVTPGGSLTLTCTASGFSLSSYAIGWVRQAPGKGLEYVGIIERNDKTAYASWAKGRFTISRTSTTVDLKMTSLTTEDTATYFCARGYLDNSPLWGPGTLVTVSS VL: AIEMTQTPASVSAAVGGTVTINCQSSQSVGDNIWLGWYQQKPGQPPKLLIRYASTLASGVPSRFKGSGSGTQFTLTISDLECDDAATYYCAGAYNGLIYSFGGGTKVEIKR
7 | 73.1 | 0.106 | 1.45e+06 | RNN0207ii (antibody, human IgG1, kappa, N297A, Rabbit variable regions recombined with BS03aHis heavy-chain constant region and hk0MC light-chain constant region; also called anti-RNF43 monospecific antibody) heavy: QEQLEESGGRLVTPGGSLTLTCTASGFSLSSYVISWVRQAPGEGLEYIGYVSTGGSPYYASWAKGRFTISRTSTAVDLKMTSLTASDTATYFCARYGYLDYSGLDLWGQGTLVTVSSASTKGPSVFPLAPSSRSTSESTAALGCLVKDYFPEPVTVSWNSGALTSGVHTFPAVLQSSGLYSLSSVVTVPSSSLGTKTYTCNVDHKPSNTKVDKRVEPKSCDKTHTCPPCPAPELRRGPKVFLFPPKPKDTLMISRTPEVTCVVVDVSQEDPEVQFNWYVDGVEVHNAKTKPREEQFASTYRVVSVLTVLHQDWLNGKEYKCKVSNKGLPSSIEKTISKAKGQPREPQVYTLPPSREEMTKNQVSLTCLVKGFYPSDIAVEWESNGQPENNYKTTPPYLDSDGSFFLYSKLTVDKSRWQQGNVFSCSVMHEALHNHYTQESLSLSPHHHHHHHH light: AQVLTQTPSSTSTAVGGTVTINCQSSQSVYEYNHLSWFQQKPGQPPKLLIYGASTLASGVPSRFKGSGSGTQFTLTISDLECDDAATYYCQGAYYGVVDTFGGGTKVEIKRTVAAPSVFIFPPSDEQLKSGTASVVCLLNNFYPREAKVQWKVDNALQSGNSQESVTEQDSKDCTYSLSSTLTLSKADYEKHKVYACEVTHQGLSSPVTKSFNRGEC
8 | 17 | 0.0467 | 2.75e+06 | RNN0187jj (antibody, human IgG1, kappa, N297A, Rabbit variable regions recombined with BS03aHis heavy-chain constant region and hk0MC light-chain constant region; also called anti-RNF43 monospecific antibody) heavy: QSLEESGGDLVKPGASLTLTCTASGFSFNSAYYMCWVRQAPGKGLEWIGCIYTGSGSTYYASWAKGRFTISKTSSTTVTLQMTSLTVADTATYFCARSGVSTYYTLWGPGTLVTVSSASTKGPSVFPLAPSSRSTSESTAALGCLVKDYFPEPVTVSWNSGALTSGVHTFPAVLQSSGLYSLSSVVTVPSSSLGTKTYTCNVDHKPSNTKVDKRVEPKSCDKTHTCPPCPAPELRRGPKVFLFPPKPKDTLMISRTPEVTCVVVDVSQEDPEVQFNWYVDGVEVHNAKTKPREEQFASTYRVVSVLTVLHQDWLNGKEYKCKVSNKGLPSSIEKTISKAKGQPREPQVYTLPPSREEMTKNQVSLTCLVKGFYPSDIAVEWESNGQPENNYKTTPPYLDSDGSFFLYSKLTVDKSRWQQGNVFSCSVMHEALHNHYTQESLSLSPHHHHHHHH light: DVVMTQTPSSVSAAVGGTVTIKCQASQSIYSGLAWYQQKPGQPPKLLIYGASTLASGVPSRFKGSGSGTEYTLTISGVQCDDAATYYCQNNYYTPSNGWAFGGGTKVEIKRTVAAPSVFIFPPSDEQLKSGTASVVCLLNNFYPREAKVQWKVDNALQSGNSQESVTEQDSKDCTYSLSSTLTLSKADYEKHKVYACEVTHQGLSSPVTKSFNRGEC
9 | 117 | 0.0227 | 193000 | RNN0276oo (antibody, human IgG1, kappa, N297A, V domains shown, Rabbit variable regions recombined with BS03aHis heavy-chain constant region and hk0MC light-chain constant region; also called anti-RNF43 monospecific antibody) VH: QSVEESGGRLVTPGTPLTLTCTVSGFSLSSYAMNWVRQAPGKGLEWIGVIGSSGRTYYASWAKGRFTSSKTSTTVVLKITSPTTEDTATYFCARGPYDSYGDGGVTGDLWGPGTLVTVSS VL: AQVLTQTPSPVSAAVGGTVTINCQSSQSVYNNNNLAWYQQKPGQPPKLLIYRASTLASGVPSRFKGSGSGTQFTLTISGVQCEDAATYYCQGGYDCSSADCDTFGGGTKVEIKR
10 | 33.3 | 0.0235 | 704000 | RNN0242nn (antibody, human IgG1, kappa, N297A, Rabbit variable regions recombined with BS03aHis heavy-chain constant region and hk0MC light-chain constant region; also called anti-RNF43 monospecific antibody) heavy: QQQLEEYGGDLVQPEGSLTLTCKASGLDFSSSYWMCWVRQAPGKGLEWIACIYTGSSGSTSYASWAKGRFTISKTSSTTVTLQMTSLTAADTATYFCARDYDYTAYAYGIMSLWGPGTLVTVSSASTKGPSVFPLAPSSRSTSESTAALGCLVKDYFPEPVTVSWNSGALTSGVHTFPAVLQSSGLYSLSSVVTVPSSSLGTKTYTCNVDHKPSNTKVDKRVEPKSCDKTHTCPPCPAPELRRGPKVFLFPPKPKDTLMISRTPEVTCVVVDVSQEDPEVQFNWYVDGVEVHNAKTKPREEQFASTYRVVSVLTVLHQDWLNGKEYKCKVSNKGLPSSIEKTISKAKGQPREPQVYTLPPSREEMTKNQVSLTCLVKGFYPSDIAVEWESNGQPENNYKTTPPYLDSDGSFFLYSKLTVDKSRWQQGNVFSCSVMHEALHNHYTQESLSLSPHHHHHHHH light: AEIVMTQTPSSKSAAVGDTVTIKCQASQSITSYLSWYQQKPGQPPKLLIYRASTLASGVPSRFKGSGSGTQFTLTISDLECADAATYYCQSNYGSYSTNYGVTFGGGTKVEIKRTVAAPSVFIFPPSDEQLKSGTASVVCLLNNFYPREAKVQWKVDNALQSGNSQESVTEQDSKDCTYSLSSTLTLSKADYEKHKVYACEVTHQGLSSPVTKSFNRGEC
